Experimental data reported in patent publication US20200147235A1 (AbbVie / Abbott, published 2020).
Where a chain is given by its changes, count along the chain named.

B1: huAb101 (antibody, V domains shown)
VH: EVQLVESGGGLVKPGGSLRLSCATSGFTFIDYYMSWVRQAPGKGLEWLGFIRNKANRYTTEYSASVKGRFTISRDNSKSILYLQMNSLKTEDTAVYYCTRDRPAWFVYWGQGTLVTVSS
VL: DIVMTQTPLSLPVTPGEPASISCKSSQSLLYSSNQKNYLAWYLQKPGQSPQLLIYWASTRESGVPDRFSGSGSGTDFTLKISRVEAEDVGVYYCQQYYSYPYTFGGGTKVEIK
notes: Framework re-engineered humanized clone (parent huAb3v1), expressed as full-length IgG
B2: huAb107 (antibody, V domains shown)
VH: EVQLVESGGGLVQPGGSLRLSCAASGFTFSDYTMAWVRQAPGKGLEWVATIIYSGRGTYYRDAVKGRFTISRDNAKNTLYLQMNSLRAEDTAVYYCARQSDDTYYYWGYFDYWGQGTMVTVSS
VL: B1 VL with S22N, Y31F, S33G, E61Q, V91I, S99D, Y100V, G106Q, V110L
notes: Framework re-engineered humanized clone (parent huAb15v2), expressed as full-length IgG
B3: huAb102 (antibody, human IgG1, kappa, L234A L235A, V domains shown)
VH: B1 VH with K13Q
VL: DIVMTQTPLSLPVTPGEPASISCKSSQSLLYSSNQKNYLAWYLQKPGQSPQLLIYWASTRESGVPDRFSGSGSGTDFTLKISRVEAEDVGVYYCQQYYSYPYTFGGGTKVEIKR
notes: Framework re-engineered humanized clone (parent huAb3v1); also called CL-huAb102
B4: huAb104 (antibody, human IgG1, kappa, L234A L235A, V domains shown)
VH: B1 VH with K13Q, N56Y, R57G
VL: B3 VL
notes: Framework re-engineered humanized clone (parent huAb3v2); also called CL-huAb104
B5: huAb103 (antibody, V domains shown)
VH: B1 VH with N56Y, R57G
VL: B1 VL
notes: Framework re-engineered humanized clone (parent huAb3v2), expressed as full-length IgG; also called haAb103
B6: Anti-CD98 rat hybridoma antibody Ab7 (antibody, V domains shown)
VH: QVQLKESGPGLVQPSQTLSLTCTVSGFSLSTYGVIWVRQPPGKGLEWMGVIWANGNTNYNSTLKSRLSISRDTSKSQVYLKMNSLQTEDTATYYCARHYYDGTYYYGYFDYWGQGVMVTVSS
VL: DIVMTQTPSSQAVSAGEKVTMNCKSSQSLLYSENKKNYLAWYQQKPGQSPKLLIYWASTRESGVPDRFIGSGSGTDFTLTISSVQAEDLAVYYCQQYYYFPYTFGPGTKLELK
B7: Anti-CD98 rat hybridoma antibody Ab9 (antibody, V domains shown)
VH: B6 VH with T23A, T31N, G49A, A53T
VL: B6 VL with N22S, S32T, I69M, T103M, P106A
B8: Anti-CD98 rat hybridoma antibody Ab6 (antibody, V domains shown)
VH: B6 VH with V12A, V37L, A53T, K75E, K81Q, T103A
VL: B6 VL with N22S, P106A
B9: Anti-CD98 rat hybridoma antibody Ab11 (antibody, V domains shown)
VH: EVQLVESGGGLVQPGRSLKLSCAASGFTFSDYAMAWVRQAPKKGLEWVAGIIYDGRGTYYRDSVKGRFTISRDNAKSTLYLQMDSLRSEDTATYYCARQGDGTYYYWGYFDYWGQGVMVTVSS
VL: DIVMTQSPSSLAVSAGETVTINCRSSQSLLSSGNQKNYLAWYQQKPGQSPKLLIYWASTRQSGVPDRFIGSGSGTDFTLTISSVQAEDLAIYYCQQYYDTPYTFGAGTKLELK
B10: Anti-CD98 rat hybridoma antibody Ab10 (antibody, V domains shown)
VH: B9 VH with G44S, G50T, Y60C, Y105H
VL: B9 VL with R24K, L110V, E111D
B11: Anti-CD98 rat hybridoma antibody Ab15 (antibody, V domains shown)
VH: B9 VH with A33T, G50T, G100S
VL: B9 VL with R24K, S31F, S82R, T100S
B12: Anti-CD98 murine hybridoma antibody Ab3 (antibody, V domains shown)
VH: EVKLVESGGGLVQPGNSLRLSCATSGFTFIDYYMSWVRQSPGKALEWLGFIRNKANGYTTEYSASVKGRFTISRDNSQSILYLQMDTLRAEDSATYYCTRDRPAWFVYWGQGTLVTVSA
VL: DIVMSQSPSSLAVSVGEKVTMSCKSSQSLLYSSNQKNYLAWYQQKPGQSPKLLIYWASTRESGVPDRFTGSGSGTDFTLTFSSVRAEDLAVYYCQQYYSYPYTFGGGTKLEIK
B13: Anti-CD98 murine hybridoma antibody Ab4 (antibody, V domains shown)
VH: EVKLVESGGGLVQPGGSLRLSCTTSGFTFTDYYMSWVRQPPGKALEWLGFIRNKATIYTTEYSASVKGRFTISRDNSQSILYLQMNTLRAEDSATYYCARASYGNSEGWFAYWGQGTLVTVSA
VL: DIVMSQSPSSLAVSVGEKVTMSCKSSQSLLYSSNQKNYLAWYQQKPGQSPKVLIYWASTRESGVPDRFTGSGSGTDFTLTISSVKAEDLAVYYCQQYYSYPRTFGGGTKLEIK
B14: Anti-CD98 murine hybridoma antibody Ab5 (antibody, V domains shown)
VH: B13 VH with T23A, S35T, T56N, I57G, Q78L, G104V
VL: B12 VL with P46L, F81I, R85K, Q96H, Y102R
B15: Anti-CD98 murine hybridoma antibody Ab2 (antibody, V domains shown)
VH: B13 VH with T23A, T28N, T56N, I57G, N76D
VL: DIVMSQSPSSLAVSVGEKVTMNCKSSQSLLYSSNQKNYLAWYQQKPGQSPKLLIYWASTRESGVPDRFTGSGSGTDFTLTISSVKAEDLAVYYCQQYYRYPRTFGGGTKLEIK

Target: T1, Human CD98 ECD with N-terminal His-tag (human, UniProt P08195 105-529)
T1 construct: The entry includes the linker and the polyhistidine tag; also called huCD98 ECD
T1 sequence: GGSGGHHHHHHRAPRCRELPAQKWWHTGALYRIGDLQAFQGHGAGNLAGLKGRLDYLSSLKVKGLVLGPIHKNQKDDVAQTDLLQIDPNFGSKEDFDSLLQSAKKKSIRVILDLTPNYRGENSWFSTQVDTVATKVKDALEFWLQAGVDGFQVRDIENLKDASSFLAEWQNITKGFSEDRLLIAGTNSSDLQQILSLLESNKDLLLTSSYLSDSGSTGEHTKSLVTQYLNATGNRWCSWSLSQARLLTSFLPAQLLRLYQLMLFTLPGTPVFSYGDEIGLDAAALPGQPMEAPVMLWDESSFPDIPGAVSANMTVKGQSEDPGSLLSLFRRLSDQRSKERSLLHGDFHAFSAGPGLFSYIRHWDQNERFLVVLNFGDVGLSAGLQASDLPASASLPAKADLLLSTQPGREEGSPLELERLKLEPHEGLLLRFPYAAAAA
Experiment: SPR (Biacore), recombinant CD98 ECD

Binder	Kd [nM]	koff [s⁻¹]	kon [M⁻¹ s⁻¹]
B1	6.1	0.0018	290000
B2	0.33	3.8e-05	110000
B3	5.5	0.0018	330000
B4	2	0.00091	450000
B5	3.4	0.00059	180000

Target: T2, Cynomolgus monkey CD98 ECD with C-terminal His-tag (SEQ ID NO: 127) (cynomolgus monkey, UniProt P08195 105-529 (human entry))
T2 construct: The entry includes the linker and the polyhistidine tag; also called cyCD98 ECD
T2 chain: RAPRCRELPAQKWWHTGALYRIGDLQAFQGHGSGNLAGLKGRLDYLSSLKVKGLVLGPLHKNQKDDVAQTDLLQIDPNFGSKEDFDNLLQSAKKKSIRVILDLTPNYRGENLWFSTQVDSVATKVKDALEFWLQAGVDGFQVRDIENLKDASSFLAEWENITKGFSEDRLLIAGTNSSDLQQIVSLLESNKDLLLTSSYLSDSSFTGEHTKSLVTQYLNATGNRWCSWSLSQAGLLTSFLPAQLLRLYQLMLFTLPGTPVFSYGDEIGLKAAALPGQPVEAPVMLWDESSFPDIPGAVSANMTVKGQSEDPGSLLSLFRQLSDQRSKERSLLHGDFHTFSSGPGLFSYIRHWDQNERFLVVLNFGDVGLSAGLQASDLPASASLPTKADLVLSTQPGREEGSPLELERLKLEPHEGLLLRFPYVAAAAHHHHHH
Experiment: SPR (Biacore), recombinant CD98 ECD

Binder	Kd [nM]	koff [s⁻¹]	kon [M⁻¹ s⁻¹]
B1	23	0.00067	30000
B2	2.7	8.7e-05	33000
B3	21	0.00068	32000
B4	14	0.00048	34000
B5	14	0.00044	31000

Target: T3, Human CD98 ECD with C-terminal His-tag (human, UniProt P08195 105-529)
T3 construct: also called huCD98 ECD; recombinant human CD98 extracellular domain
T3 sequence: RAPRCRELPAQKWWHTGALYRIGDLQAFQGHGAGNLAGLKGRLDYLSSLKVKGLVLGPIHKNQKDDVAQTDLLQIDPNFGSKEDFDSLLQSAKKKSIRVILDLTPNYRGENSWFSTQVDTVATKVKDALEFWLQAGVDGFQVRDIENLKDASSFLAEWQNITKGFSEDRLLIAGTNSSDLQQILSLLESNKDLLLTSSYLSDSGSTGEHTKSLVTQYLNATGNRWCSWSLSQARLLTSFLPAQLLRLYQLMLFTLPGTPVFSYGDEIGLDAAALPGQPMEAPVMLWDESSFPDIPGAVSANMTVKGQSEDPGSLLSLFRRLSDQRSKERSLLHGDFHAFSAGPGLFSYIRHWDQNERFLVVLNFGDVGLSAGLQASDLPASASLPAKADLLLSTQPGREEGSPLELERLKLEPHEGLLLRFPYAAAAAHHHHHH
Experiment: SPR Biacore, anti-Fc capture of mAb, CD98 ECD analyte
Procedure: (§1) The binding kinetics of these purified mouse and rat monoclonal anti-CD98 antibodies for purified recombinant CD98 protein (extracellular domain. ECD) were determined by surface plasmon resonance-based measurements made on Biacore T100/T200 instruments (GE Healthcare, Piscataway, N.J.) at 25° C. using an anti-Fc capture assay approach. Binding kinetic measurements were made in the assay buffer HBS-EP+: 10 mM Hepes, pH 7.4, 150 mM NaCl, 3 mM EDTA, 0.05% Tween 20). For example, approximately 8000 RU of anti-Fc (species specific) polyclonal antibody (Thermo Fisher Scientific Inc. Rockford, Ill.) diluted in 10 mM sodium acetate (pH 4.5) was directly immobilized across a CM5 research grade biosensor chip using a standard amine coupling kit according to manufacturer's instructions and procedures at 25 μg/ml. Unreacted moieties on the biosensor surface were blocked with ethanolamine. The test antibody to be captured as a ligand was diluted in running buffer to ˜0.5 μg/mL and injected over anti-Fc surface at a flow rate of 10 μL/min, CD98 binding and dissociation were observed under a continuous flow rate of 80 μL/min. Human and cynomolgus monkey CD98 ECDs, both with a C-terminal His-tag, are used for this study (Table 3). After each cycle the anti-Fc capture surface was regenerated using 10 mM Glycine-HCl, pH 1.5. During the assay, all measurements were referenced against the capture surface alone (i.e., with no captured test antibody) and buffer-only injections (no antigen) were used for double referencing. For kinetic analysis, rate equations derived from the 1:1 Langmuir binding model were fitted simultaneously, globally and with mass transfer term included to multiple referenced antigen binding curves using Biacore T100T200 Evaluation software.

Binder	Kd [nM]	koff [s⁻¹]	kon [M⁻¹ s⁻¹]
B6	0.76	0.00015	200000
B7	1.2	0.00015	130000
B8	1.1	0.00016	150000
B9	18	0.0012	65000
B10	2	0.00024	130000
B11	0.68	5.3e-05	77000
B12	15	0.003	200000
B13	0.83	3.7e-05	44000
B14	2.2	0.00012	52000
B15	1.1	8.1e-05	73000

Target: T4, Cynomolgus monkey CD98 ECD with C-terminal His-tag (cynomolgus monkey, UniProt P08195 105-529 (human entry))
T4 construct: also called cyCD98 ECD; recombinant cynomolgus monkey CD98 extracellular domain
T4 chain: T2 chain
Experiment: as above
Procedure: as §1

Binder	Kd [nM]	koff [s⁻¹]	kon [M⁻¹ s⁻¹]
B6	3	0.00027	91000
B7	9.9	0.00051	51000
B8	5.9	0.00037	62000
B9	72	0.0017	24000
B10	7.8	0.00049	62000
B11	3.3	9.6e-05	29000
B12	30	0.0012	38000
B13	1.8	1.7e-05	9700
B14	11	0.00022	21000
B15	37	0.00086	24000
